The values that follow come from PMC13132431, “Epigenetic gene regulation is controlled by distinct regulatory complexes utilizing specialized paralogs of TELOMERE REPEAT BINDING FACTORS”.

In one data set the target is T1, HIS-TRB3 (Arabidopsis thaliana, UniProt Q9M2X3 1-295).
T1 sequence: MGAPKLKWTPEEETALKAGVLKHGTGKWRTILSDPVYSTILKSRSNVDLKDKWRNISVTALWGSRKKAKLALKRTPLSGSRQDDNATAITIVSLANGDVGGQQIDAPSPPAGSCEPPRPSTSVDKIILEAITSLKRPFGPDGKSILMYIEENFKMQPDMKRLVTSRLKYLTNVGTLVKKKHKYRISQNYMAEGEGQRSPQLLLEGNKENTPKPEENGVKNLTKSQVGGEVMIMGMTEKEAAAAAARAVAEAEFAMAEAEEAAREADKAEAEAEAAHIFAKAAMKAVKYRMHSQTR
Put plainly: MST; MST: 50 mM NaPO4, 300 mM NaCl, pH 7.5, 0.05% Tween 20, 1.25 mg/ml BSA; 20 nM Cy3-dsDNA, 260 pM-8.5 uM protein; 10 min at RT. As to conditions: protein: recombinant; tags: 6xHis (pET-28b); label: 5'-Cy3 on both strands; blunt.

The next data set deals with T2, HIS-TRB1 (Arabidopsis thaliana, UniProt Q8VWK4 1-300).
T2 sequence: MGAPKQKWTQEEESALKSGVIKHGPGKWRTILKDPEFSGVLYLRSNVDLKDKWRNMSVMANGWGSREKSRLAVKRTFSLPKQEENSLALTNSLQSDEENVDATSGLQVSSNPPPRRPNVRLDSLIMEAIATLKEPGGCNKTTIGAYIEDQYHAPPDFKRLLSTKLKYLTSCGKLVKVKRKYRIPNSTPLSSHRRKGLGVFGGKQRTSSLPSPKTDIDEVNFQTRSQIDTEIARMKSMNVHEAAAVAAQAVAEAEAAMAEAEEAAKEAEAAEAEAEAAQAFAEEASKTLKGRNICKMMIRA
The description is as above. As to conditions: protein: recombinant; tags: 6xHis (pET-28b); label: 5'-Cy3 on both strands; blunt.

B1: (C)AACCTAA (dsDNA)
DNA 1: CATCATGGCAACCTAAGGCTGGTACTAG
DNA 2: CTAGTACCAGCCTTAGGTTGCCATGATG
As a reminder, the Kd is a measure of binding affinity in units of concentration. With B1, the dissociation constant (Kd) with HIS-TRB3 turned out to be 298 ± 48 nM; in the data set with HIS-TRB1, 4900 ± 1000 nM.

B2: proSEP3-telo-box (dsDNA)
DNA 1: TTTAAATGTTAGGGTTTTTTGTAGGATT
DNA 2: AATCCTACAAAAAACCCTAACATTTAAA
Regarding B2, in the data set with HIS-TRB3, the Kd worked out at 640 ± 19 nM. Moreover, the binding result with HIS-TRB1 is reported as “no binding”.

B3: (C)GACCTAA (dsDNA)
DNA 1: CATCATGGCGACCTAAGGCTGGTACTAG
DNA 2: CTAGTACCAGCCTTAGGTCGCCATGATG
As to B3, in the data set with HIS-TRB3, the Kd came out at 652 ± 64 nM. Further, the binding result in the data set with HIS-TRB1 is reported as “no binding”.

B4: R4 telo-box (4x repeat) (dsDNA)
DNA 1: GGTTTAGGGTTTAGGGTTTAGGGTTTAG
DNA 2: CTAAACCCTAAACCCTAAACCCTAAACC
Turning to B4, the Kd in the data set with HIS-TRB3 came to 531 ± 30 nM; with HIS-TRB1 it was 567 ± 180 nM.
